Assay results reported in the supplement of paper PMC12042874.
± gives the uncertainty stated by the source.

Assay: amyloid nucleation score (Sup35N fusion, yeast selection) (log enrichment); library NNK2; higher = more nucleation; inactive = no reads after selection
Summary of the method: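 Sup35N fusions to peptides of 20 random codons were expressed in psi-negative yeast, induced 24 hours with 100 μM copper sulfate, and grown 7 days at 30°C on medium lacking adenine and uracil. Input and output plasmid inserts were sequenced by Illumina. The nucleation score is the DiMSum log enrichment of output over input reads, centred on the mode score of non-aggregating sequences. Sequences with under 100 input reads were excluded.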

Substance | amyloid nucleation score
NGKNILD | inactive
NGMRIGTDLGFYSRGMLRTQ | 0.162 ± 0.26
NGSRSSMSGARERYCYIRVS | inactive
NHESYWSKSSWFWLFNGVSQ | inactive
NHRQDKLQNHVSGLPSIGSL | 0.059 ± 0.36
NHSVYVYMLMALTTWGVLSS | -0.403 ± 0.79
NHYSSVMKVFCDRFTSAIGG | -0.946 ± 0.63
NIARNFRYRM | -1.86 ± 1.1
NIDSVLRNYSCDHRKYHSLE | -0.305 ± 1
NIDSWVKGFVKY | -0.558 ± 1
NIFFVRCYFNVLYNGALCHS | 7.025 ± 0.043
NIFQGAICYQTYGGVFPYFL | 6.151 ± 0.042
NINDEPPNNHMMHTITHKWT | inactive
NIRAKNRDFRLGLANRKETA | 1.15 ± 0.27
NIRNDVLNQLT | 2.11 ± 0.14
NIRTKILLGY | 0.006 ± 0.44
NIVGHAHRLFNRMRCLRLYQ | -0.439 ± 0.32
NIYNPVD | -0.196 ± 1.1
NKLYFVGKWNGFVSSVCSLV | -0.942 ± 0.41
NKRHSGRFSVLQISA | 0.957 ± 0.15
NKVFSFDYVVNNE | inactive
NKYKLNLYMRVIGDQNNPVN | -0.249 ± 1

Substance | amyloid nucleation score
NLAGKGAITDRFSQVRSGQS | 1.4 ± 0.25
NLCDYSSSRLIASRNMHYTA | 4 ± 0.07
NLDDEL | 0.422 ± 0.43
NLDDYYDNILFTAMR | 0.201 ± 0.54
NLEPKNCCCCETFFISYIPT | 1.09 ± 0.35
NLGCPYCISVGC | 0.649 ± 0.42
NLHATWTLDESDFLYQPCLS | 0.102 ± 0.2
NLHEMLIGHGRQVRR | 1.42 ± 0.36
NLHYHSSTSSTRNFKYGCAF | inactive
NLKDYIAFHNMSTAV | 2.22 ± 0.1
NLKRVKRMIPYYTTQ | -0.343 ± 0.33
NLLRNRARWL | -1.08 ± 0.44
NLNFDPGVLF | inactive
NLNMVTWVRQTHI | -0.726 ± 0.32
NLNVIPDCLWFYDSRMLFFI | inactive
NLRRKH | 0.294 ± 0.8
NLSLAFALMTSVVNHNMWSG | 5.661 ± 0.044
NLSSWTVLILRSDAVVPVFL | 4.07 ± 0.078
NMCVK | inactive
NMDKRSNGFRKCMWLS | -0.883 ± 1.1
NMKGTPVYLSFYDCSRPVGW | 4.04 ± 0.11
NMLVVFNAPYYSL | 7.811 ± 0.049

Substance | amyloid nucleation score
NMMWCVKHYKSVRSLLGCLV | -0.891 ± 0.54
NMQFSSTFRYSGYYYLVEHW | 1.59 ± 0.13
NMYFCLFFRIVLLLGNDKIA | -1.06 ± 0.6
NMYSCQYVCGTALDDDWVGC | 7.813 ± 0.059
NNFATLSKL | inactive
NNFEI | -0.672 ± 0.6
NNFYKWGESCLN | -0.9 ± 0.76
NNKYWWDVLYYNSTLLARVN | -0.225 ± 0.48
NNLLYLLLLYVQTSAE | 4.49 ± 0.099
NNSAECRMSIKRSACGLQIA | 0.961 ± 0.37
NNYAADGRCNYWGSISLKVR | inactive
NPDLNKT | 1.36 ± 0.39
NPLFHSPV | 0.01 ± 0.65
NQFEGLKMRSTKLGAGGS | -0.293 ± 0.64
NQNIVVAVEVQVWFICNFVH | 3.08 ± 0.1
NQRIGKTGFYSRSRARLNKT | 3.37 ± 0.06
NQSWRVVRQVCVEETRMMCG | 0.89 ± 0.23
NQTNSGQRVY | -0.208 ± 1.1
NRAVGNEAYCRSGWSGFHSL | -0.459 ± 1.1
NRELV | -1.67 ± 0.64
NRFFAALLFKADLFWSQF | -0.021 ± 0.76
NRFVYLVI | -0.321 ± 0.36

Substance | amyloid nucleation score
NRGSAPYYVTICYCNLC | 8.578 ± 0.035
NRGTEWISGECRYHWQDVRQ | 0.109 ± 0.21
NRKFHIMTFC | 0.415 ± 0.41
NRKRLWHYFLGTKDISIERV | inactive
NRRNLSVGYSKVHS | 0.443 ± 0.3
NRSAYLGRMVSI | 0.164 ± 0.44
NRSTKTMSYWPLVRNLLT | 1.51 ± 0.3
NRVTCYSMDRNIM | -0.776 ± 1.1
NRWKHYTDGSTL | -0.02 ± 0.39
NRYVEVCPFLMGTVVGLWLR | 0.851 ± 0.8
NSESYRCERY | -0.567 ± 0.49
NSIYLCLSAGRFDSMKVNSE | 4.22 ± 0.076
NSKVFS | 0.011 ± 1.1
NSLCLLNRQ | 0.241 ± 0.54
NSLLNFWEVTLLRGGTHMVF | -0.675 ± 0.29
NSLNI | -0.127 ± 1.1
NSLNSMVYYEYFYFLVYVCG | -0.015 ± 0.49
NSNSCAHLTKTRYKSTVRYT | 2.1 ± 0.23
NSQGYFMFIKVDHS | -1.39 ± 1.1
NSQTYTGCAVGYVLVNVMGL | 6.474 ± 0.033
NSVAIVQIVGASAWRGNLL | 5.128 ± 0.046
NSVDSRWGDQLARICIHGMT | 0.141 ± 0.42
